The values below are quoted from earlier work in paper PMC6526119.

This data set concerns the target Hsp90 (Saccharomyces cerevisiae) (UniProt P02829).

By Kd is commonly meant the concentration at which binding is half-saturated. With Hsp90 (from UniProt P02829), the Kd is 60 nM.
